These results are taken from patent publication US11319368B2, “Treatment of hepatotoxicity with IL-11 antibody” (Singapore Health Services PTE LTD., priority 2019, dated 2022).

Data set [1] relates to primary human hepatocytes. The data set can be described thus: IL-11 treatment of primary human hepatocytes: ALT in supernatant, actin stress fibres. The note with it: IL-11 0.019-10 ng/ml, 24 h. It counts as cell-based. Here is the method: IL-11 mediated hepatocyte cell death was measured by determining the levels of alanine transaminase (ALT) in hepatocyte supernatant after treatment with a range of IL-11 doses (0.019-10 ng/ml). ALT levels were measured using ALT Activity Assay Kit (ab105134, Abcam) according to the manufacturer's protocol. Concurrent number of stress fibres 24 h after IL-11 stimulation was detected by rhodamine-phalloidin staining.

The next data set has as its target T1, mIL11Rα1 (Mus musculus, UniProt Q64385).
T1 construct: purchased SinoBiological 50075-M08H
T1 sequence (Q64385 24-432): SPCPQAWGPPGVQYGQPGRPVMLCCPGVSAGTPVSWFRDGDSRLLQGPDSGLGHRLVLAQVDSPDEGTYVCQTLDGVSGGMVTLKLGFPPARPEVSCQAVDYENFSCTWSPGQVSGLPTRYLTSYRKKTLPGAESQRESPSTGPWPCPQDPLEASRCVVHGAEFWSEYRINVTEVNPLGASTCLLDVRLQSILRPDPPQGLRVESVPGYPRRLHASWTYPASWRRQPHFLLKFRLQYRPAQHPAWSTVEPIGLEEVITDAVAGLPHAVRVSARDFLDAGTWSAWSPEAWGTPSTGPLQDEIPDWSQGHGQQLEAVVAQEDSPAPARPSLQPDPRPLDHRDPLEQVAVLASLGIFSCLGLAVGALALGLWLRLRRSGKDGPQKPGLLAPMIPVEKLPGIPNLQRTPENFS
The data set can be described thus: Competition ELISA, biotinylated rmIL11 binding to mIL11Rα1. The note with it: two-fold dilutions from 5 μg ml^-1. Here is the method: Mouse IL11Rα (1 μg ml^−1 in PBS) was coated on a 96-well plate (overnight at 4° C.) and then blocked with blocking buffer (1% BSA in PBS containing 0.05% Tween20). Biotinylated mouse Il11 was prepared using Lightning-Link Rapid Biotin type A kit (Expedeon) according to the manufacturer's instructions. RhIL11 or rmIl11 was two-fold serially diluted in blocking buffer (starting at 5 μg ml^−1) and mixed with 0.01 μg ml^−1 biotinylated mouse IL11. The mixture of biotinylated mouse IL11 and either rhIL11 or rmIL11 was added into the coated plate and incubated for 1 h at RT. Color development was performed by adding Streptavidin-HRP (1:1000 in blocking buffer) and TMB chromogen solution (002023, ThermoFisher Scientific).

Data set [2] has as its system primary human hepatocytes. The data set can be described thus: IL11 stimulation of primary human hepatocytes with sgp130 or sIL11Rα. Format: cell-based. The note with it: IL11 0.625 ng/ml to 20 ng/ml.
Data set [3] concerns LPS-induced hepatic injury (acute endotoxemia). The settings on record: 150 μg/kg, IP; cited from earlier work.
In another data set the test system is LPS-induced lung injury. The note with it: 200 mg/kg, IP; cited from earlier work.

B1: rhIL11: Recombinant human IL11 (UniProtKB:P20809, Genscript) (protein)
chain: PGPPPGPPRVSPDPRAELDSTVLLTRSLLADTRQLAAQLRDKFPADGDHNLDSLPTLAMSAGALGALQLPGVLTRLRADLLSYLRHVQWLRRAGGSSLKTLEPELGTLQARLDRLLRRLQLLMSRLALPQPPPDPPAPPLAPPSSAWGGIRAAHAILGGLHLTLDWAVRGLLLLKTRL
Consider B1, for which, in data set [1], the “actin stress fibres in hepatocytes” value is listed as “progressively stimulated an increase in actin stress fibres” and the “alanine aminotransferase (ALT) in hepatocyte supernatant (hepatocyte cell death)” value is given as “progressive increase in alanine aminotransferase (ALT)”. The “competition with rmIL11 for binding to mIL11Rα1” value in the data set with mIL11Rα1 is on record as “competed with rmIL11 for binding to mIL11Rα1”. The “hepatocyte cell death (ALT)” value in data set [2] is “dose-dependently (0.625 ng/ml to 20 ng/ml) caused hepatocyte cell death”. The LPS-induced hepatic injury entry in data set [3] is given as “significant protective role in LPS-induced hepatic injury (acute”. In addition, the “LPS-induced lung injury and lethality” value with LPS-induced lung injury is recorded as “inflammatory activity that protects against LPS-induced lung”.
